The text below walks through data of IntAct's records for PubMed 16374512.

The chains are these.
B1: Retinoblastoma-associated protein (Homo sapiens), P06400 (parent)
chain: MPPKTPRKTAATAAAAAAEPPAPPPPPPPEEDPEQDSGPEDLPLVRLEFEETEEPDFTALCQKLKIPDHVRERAWLTWEKVSSVDGVLGGYIQKKKELWGICIFIAAVDLDEMSFTFTELQKNIEISVHKFFNLLKEIDTSTKVDNAMSRLLKKYDVLFALFSKLERTCELIYLTQPSSSISTEINSALVLKVSWITFLLAKGEVLQMEDDLVISFQLMLCVLDYFIKLSPPMLLKEPYKTAVIPINGSPRTPRRGQNRSARIAKQLENDTRIIEVLCKEHECNIDEVKNVYFKNFIPFMNSLGLVTSNGLPEVENLSKRYEEIYLKNKDLDARLFLDHDKTLQTDSIDSFETQRTPRKSNLDEEVNVIPPHTPVRTVMNTIQQLMMILNSASDQPSENLISYFNNCTVNPKESILKRVKDIGYIFKEKFAKAVGQGCVEIGSQRYKLGVRLYYRVMESMLKSEEERLSIQNFSKLLNDNIFHMSLLACALEVVMATYSRSTSQNLDSGTDLSFPWILNVLNLKAFDFYKVIESFIKAEGNLTREMIKHLERCEHRIMESLAWLSDSPLFDLIKQSKDREGPTDHLESACPLNLPLQNNHTAADMYLSPVRSPKKKGSTTRVNSTANAETQATSAFQTQKPLKSTSLSLFYKKVYRLAYLRLNTLCERLLSEHPELEHIIWTLFQHTLQNEYELMRDRHLDQIMMCSMYGICKVKNIDLKFKIIVTAYKDLPHAVQETFKRVLIKEEEYDSIIVFYNSVFMQRLKTNILQYASTRPPTLSPIPHIPRSPYKFPSSPLRIPGGNIYISPLKSPYKISEGLPTPTKMTPRSRILVSIGESFGTSEKFQKINQMVCNSDRVLKRSAEGSNPPKPLKKLRFDIEGSDEADGSKHLPGESKFQQKLAEMTSTRTRMQKQKMNDSMDTSNKEEK

In test [1] the parent is B1. The following applies: with e2f1_human E2F1, Q01094.
Chain of e2f1_human E2F1, Q01094 (Q01094 whole entry): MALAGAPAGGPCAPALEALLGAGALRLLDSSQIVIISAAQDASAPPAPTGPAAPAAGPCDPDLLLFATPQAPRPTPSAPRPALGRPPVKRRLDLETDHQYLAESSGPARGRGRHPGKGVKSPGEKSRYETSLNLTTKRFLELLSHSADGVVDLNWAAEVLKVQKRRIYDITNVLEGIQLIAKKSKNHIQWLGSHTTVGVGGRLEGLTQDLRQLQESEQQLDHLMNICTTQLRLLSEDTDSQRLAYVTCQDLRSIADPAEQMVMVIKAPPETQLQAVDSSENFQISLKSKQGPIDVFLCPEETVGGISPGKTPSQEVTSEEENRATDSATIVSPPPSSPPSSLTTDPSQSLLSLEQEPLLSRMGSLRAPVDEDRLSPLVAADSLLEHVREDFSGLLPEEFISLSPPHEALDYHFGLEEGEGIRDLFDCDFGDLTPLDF
Variants of B1 are the subject of test [2]. Conditions: with e2f1_human E2F1, Q01094. The source holds these as a separate data set.

For K874Q, the “effect of a mutation on the interaction” value in test [1] is “disrupting interaction”; in test [2], “decreasing interaction”.
As to K873Q, the “effect of a mutation on the interaction” value is on record as “disrupting interaction” in test [1] and “decreasing interaction” in test [2].
